The results in this text go back to patent publication US20060134801A1, “Methods and compositions involving MDA-7” (Board of Regents, The University of Texas System, priority 2003, published 2006).

One data set deals with HUVEC. The data set is described as follows: Endothelial cell differentiation (tube formation) assay on Matrigel. In kind it is cell-based, human. The procedure: Endothelial cell differentiation (tube formation) assays were done using the in vitro angiogenesis assay kit (Chemicon, Temecula, Calif.). Briefly, HUVEC and HMVEC were grown to 80% confluency, collected, resuspended in growth medium, and plated at a concentration of 2−10^4 cells/well in a 96-well plate coated with Matrigel (Chemicon, Temecula, Calif.). Cells were treated with sMDA-7 protein (1, 5, 10, and 50 ng/ml), or a preparation immunodepleted of sMDA protein for 24 h at 37° C. Cells treated with PBS served as negative controls in these experiments. The ability of sMDA-7 to inhibit tube formation was determined and quantitated by counting the number of tubes under bright-field microscopy.
For experiments involving comparative studies, cells were treated with equimolar concentrations of sMDA-7 (5, 10, and 300 ng/ml), recombinant human endostatin (5.2, 10.4, and 315 ng/ml; Calbiochem, La Jolla, Calif.), recombinant IFN-γ (4.5, 9, and 268 ng/ml; R&D systems, Minneapolis, Minn.) or recombinant IP-10 (2.4, 4.5, and 134 ng/ml; R&D systems, Minneapolis, Minn.) and analyzed for tube formation assay as described above. All samples were tested in duplicate. Experiments were repeated at least 5-6 times.
For receptor blocking studies, HUVEC grown in six-well plates were pretreated with IL-22R1 blocking antibody (1 ng/ml and 5 ng/ml). Following overnight incubation, cells were harvested, washed, and plated in Matrigel coated 96-well plates. Fresh IL-22R1 blocking antibody and sMDA-7 was added to the wells in a 1:1 ratio (1 ng/ml of IL-22R1 antibody:1 ng/ml of sMDA-7) or 1:5 ratio (1 ng/ml of IL-22R1 antibody:5 ng/ml of sMDA-7) and incubated at 37° C. After overnight incubation, the plates were examined for tube formation. All other experimental procedures were the same as described above. […] The relative amount of IL-22R1 used for experiments involving endostatin was 315 ng/ml (1:1 ratio) and 134 ng/ml for experiments involving IP-10 (1:1 ratio). All other experimental procedures were the same as described previously. For blocking studies using anti-IP-10 or anti-IFN-γ neutralizing antibodies (R & D Systems), experiments were conducted as described above for receptor studies except that HUVEC were treated with the appropriate neutralizing antibody (1 μg and 5 μg/ml) prior to treatment with sMDA-7 (300 ng/ml).

A further data set concerns A549 tumor xenografts. As to the kind of experiment: A549 xenograft tumors with 293-mda-7 cells (mixing and distant implant). In kind it is in vivo, nude mice. The settings on record: 3 days postimplantation of 293-mda-7 cells. The procedure: […] 293 cells and 293-mda-7 cells were first tested for their ability to form tumors. […] No tumors formed at this cell concentration, so subsequent experiments were performed using this cell number. For in vivo mixing experiments, human lung tumor cells (A549) grown to 90% confluency were trypsinized, washed, and resuspended in sterile phosphate-buffered saline at a concentration of 5×10^6/ml. The tumor-cell suspension was mixed with an equal number (5×10^6/ml) of parental 293 cells or with 293-mda-7 cells, gently vortexed, and injected subcutaneously in nude mice (10^6 cells/animal) as described above. Each group comprised of eight animals, and the experiments were done twice. Tumor growth was monitored and measured as described previously (Saeki et al., 2002). At the end of the experiment, animals were euthanized by CO2 inhalation, and tumors were harvested for histopathological analysis, western blot analysis, and for CD31 and TUNEL staining.
To evaluate the systemic effect of sMDA-7 on tumor growth, subcutaneous tumors were established by injecting A549 tumor cells (5×10^6 cells) into the lower right flank of nude mice. […] The effect of sMDA-7 on tumor growth was monitored as described above. […]
Tumor tissues were stained for CD31 and TUNEL as previously described (Saeki et al., 2002). […] Tissue sections were analyzed and quantitated, and the results interpreted in a blind fashion.

For data set [1], the system named is IRF-1 and IRF-2 in MeWo cells. As to the kind of experiment: Immunoblotting of IRF-1 and IRF-2. Format: cell-based, human. The settings on record: within 4 h. The procedure:
Two×10^6 cultured melanoma cell lines were rinsed twice in ice-cold PBS and lysed in 60 μl of lysis buffer [25 mM Tris, 140 mM NaCl, and 1% NP40 (pH 7.5)] containing 5 mM EDTA, 0.2 mM orthovanadate, 10 mM NaF, leupeptin, aprotinin, and phenylmethylsulfonyl fluoride for 10 min on ice. Equal amounts of total protein (measured with DC Protein Assay Reagent; Bio-Rad Labs, Hercules, Calif.) were loaded on a standard 10% SDS polyacrylamide gel, and fractionated proteins were electroblotted onto a nitrocellulose membrane. Nitrocellulose membranes were blocked for 1 h at room temperature using 5% dry milk in 1× PBS and washed three times for 5 min each in PBS containing 0.05% Tween 20 at room temperature. The membranes were incubated overnight at 4° C. in a sealed bag with a 1:2000 dilution of IRF-1 and IRF-2 polyclonal antibodies in 10 ml of 5% dry milk/0.1% Tween 20 in 1× PBS. The membranes were washed three times for 5 min each in PBS containing 0.05% Tween 20, and then incubated with peroxidase-conjugated antirabbit IgG secondary antibody (Transduction Laboratories) at 1:2000 dilution in PBS with 5% dry milk and 0.1 % Tween 20 for 45 min at room temperature. The blots were visualized using an enhanced chemiluminescence detection kit (Amersham, Arlington Heights, Ill.).

B1: sMDA-7: soluble secreted human MDA-7 (IL-24) protein purified from stably transfected 293-mda-7 cells (protein)
chain: AQGQEFHFGPCQVKGVVPQKLWEAFWAVKDTMQAQDNITSARLLQQEVLQNVSDAESCYLVHTLLEFYLKTVFKNYHNRTVEVRTLKSFSTLANNFVLIVSQLQPSQENEMFSIRDSAHRRFLLFRRAFKQLDVEAALTKALGEVDILLTWMQKFYKL
Take B1: the “inhibitory activity on tube formation in presence of anti-IP-10 or anti-IFN-γ neutralizing antibodies” value in the data set with HUVEC was “not lost”. Besides, in the data set with HUVEC (5 ng/ml alone), the tube formation entry is listed as “completely inhibited”. Besides, in the data set with HUVEC (HUVEC and HMVEC, 1, 5, 10, 50 ng/ml), the “formation of capillary tube-like structures” value is recorded as “significantly inhibited”. The “concentration required to significantly inhibit HUVEC tube formation” value in the data set on HUVEC (equimolar comparison) came out at 10 ng/mL. Besides, in the data set with A549 tumor xenografts, the “serum level of circulating sMDA-7 by ELISA” value is recorded as “approximately 50 ng/ml”. Besides, in data set [1], the “fall in IRF-1 expression” value was around 4 fold and the “increase in IRF-2 expression” value came to 4.7 fold.
